Experimental data published in PMC2731897.

T1: GroEL1 (untagged) (Mycobacterium tuberculosis) (UniProt P9WPE9)
T1 sequence: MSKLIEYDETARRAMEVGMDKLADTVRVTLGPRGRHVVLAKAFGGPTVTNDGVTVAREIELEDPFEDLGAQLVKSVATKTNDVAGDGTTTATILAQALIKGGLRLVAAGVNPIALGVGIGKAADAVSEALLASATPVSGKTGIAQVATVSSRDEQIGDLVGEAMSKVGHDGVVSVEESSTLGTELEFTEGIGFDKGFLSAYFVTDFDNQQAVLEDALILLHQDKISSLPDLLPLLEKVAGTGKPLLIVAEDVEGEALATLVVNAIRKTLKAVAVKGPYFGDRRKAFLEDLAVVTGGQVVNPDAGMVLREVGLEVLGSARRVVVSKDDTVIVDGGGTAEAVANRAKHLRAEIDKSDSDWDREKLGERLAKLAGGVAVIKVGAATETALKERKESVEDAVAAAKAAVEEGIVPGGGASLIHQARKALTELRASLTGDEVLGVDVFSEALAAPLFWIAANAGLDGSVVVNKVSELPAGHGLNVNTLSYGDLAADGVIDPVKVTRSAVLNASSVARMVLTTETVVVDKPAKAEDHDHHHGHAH

T2: GroEL1 (untagged) (Mycobacterium tuberculosis, UniProt P9WPE9 1-539)
T2 sequence: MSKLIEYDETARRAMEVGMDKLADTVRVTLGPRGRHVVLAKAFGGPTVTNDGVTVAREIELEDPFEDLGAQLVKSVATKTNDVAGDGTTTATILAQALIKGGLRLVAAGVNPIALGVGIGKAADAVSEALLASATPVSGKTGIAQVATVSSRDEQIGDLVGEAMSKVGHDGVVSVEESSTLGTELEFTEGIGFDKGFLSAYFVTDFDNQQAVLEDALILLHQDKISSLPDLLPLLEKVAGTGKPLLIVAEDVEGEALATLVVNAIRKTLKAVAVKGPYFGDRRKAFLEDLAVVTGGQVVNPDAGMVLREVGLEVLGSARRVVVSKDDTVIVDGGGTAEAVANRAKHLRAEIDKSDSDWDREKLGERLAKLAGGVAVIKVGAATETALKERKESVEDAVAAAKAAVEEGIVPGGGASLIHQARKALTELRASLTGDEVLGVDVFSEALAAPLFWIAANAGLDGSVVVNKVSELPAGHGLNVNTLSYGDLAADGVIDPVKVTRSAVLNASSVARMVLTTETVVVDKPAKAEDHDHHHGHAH


Target: T1, GroEL1 (untagged) (Mycobacterium tuberculosis)
Assay: EMSA

Molecule	binding
TATATAGTCGACCCAGGTGATTCGGCATTCGTCCGCGCCCTCGCGCCGTCGTCGCGGGTGCCGACGCAGGGGTTAGCCGATTGCCATCTAGCACTCTATACATGAGAGTGCTAGCACTCAAGGGCGCCCCCTTGCTTCCTGGTTGCCAGCGTGTCTCTAGATATATA (double strand) [groES upstream region, 140 bp]	binds

Target: T2, GroEL1 (untagged)
Assay: EMSA

Molecule	binding result
MutO3 ss (ssDNA) DNA: TTAGCCGATTGCCATTCCTGTACAAATACATGAGAGTGCTAGCACTCAAGGGCGCCCCCT	binds
MutO7 ss (ssDNA) DNA: TTAGCCGATTGCCATCACGCACTACGTAGTGTCTATGTATCGATCTCAAGGGCGCCCCCT	binds
CIRCE2F ss (ssDNA) DNA: TTAGCCGATTGCCATCTAGCACTCTATACATGAGAGTGCTAGCACTCAAGGGCGCCCCCT	binds
MutO5 ss (ssDNA) DNA: TTAGCCGATTGCCATCTAGCACTCTGCGCCCCCTATACATGAGAGTGCTAGCACTCAAGG	binds
MutO2 ss (ssDNA) DNA: ATACTTAGCCGATTGCCATCTAGCACTCTAGAGTGCTAGCACTCAAGGGCGCCCCCTATG	binds
MutO6 ss (ssDNA) DNA: TTAGCCGATTGCCATCTAGCACTCTATACATGTTGGAACGGACACTCAAGGGCGCCCCCT	binds
MutO4 ss (ssDNA) DNA: GTGCACTTAGCCGATTGCCATTCTATACATGAGACACTCAAGGGCGCCCCCTCTAGCTAG	binds

Target: T2, GroEL1 (untagged)
Assay: EMSA
Remark: another data set of the same source

Molecule	Kd [nM]
CIRCE2FR (dsDNA) DNA 1: TTAGCCGATTGCCATCTAGCACTCTATACATGAGAGTGCTAGCACTCAAGGGCGCCCCCT DNA 2: AGGGGGCGCCCTTGAGTGCTAGCACTCTCATGTATAGAGTGCTAGATGGCAATCGGCTAA	143
